The values that follow are results of earlier work, collected in publication PMC4615603.

A word on the Kd: it is a measure of binding affinity in units of concentration.

The target of this data set is Nef (Human immunodeficiency virus 1) (UniProt P04324).

With Hck SH3 (from UniProt P08631), the equilibrium dissociation constant (Kd) was 120 nM.
